Assay results: the supplement of paper PMC7877785
± gives the uncertainty stated by the source.

Assay: self-splicing fitness, log relative to wild type (ln ratio); higher = more splicing; Tetrahymena group I intron in knt gene, E. coli kanamycin selection, DiMSum; sequences stand for … in CUCUCU…GGAGGGAAAAGUUAUCAGGCAUGCACCUGGUAGCUAGUCUUUAAACCAAUAGAUUGCAUCGGUUUAAAAGGCAAGACCGUCAAAUUGCGGGAAAGGGGUCAACAGCCGUUCAGUACCAAGUCUCAGGGGAAACUUUGAGAUGGCCUUGCAAAGGGUAUGGUAAUAAGCUGACGGACAUGGUCCUAACCACGCAGCCAAGUCCUAAGUCAACAGAUCUUCUGUUGAUAUGGAUGCAGUUCACAGACUAAAUGUCGGUCGGGGAAGAUGUAUUCUUCUCAUAAGAUAUAGUCGGACCUCUCCUUAAUGGGAGCUAGCGGAUGAAGUGAUGCAACACUGGAGCCGCUGGGAACUAAUUUGUAUGCGAAAGUAUAUUGAUUAGUUUUGGAGUACUCGUGGUCG
Procedure, shortened: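 Pooled colonies went to amplicon sequencing on an Illumina HiSeq 2500 after six replicate transformations. The plates were LB agar with 100 μg/mL carbenicillin, 50 μM IPTG and 0.2% rhamnose, with or without 25 μg/mL kanamycin, incubated overnight at 37°C or 30°C. The E. coli BL21(DE3) library had all eight P1ex-region intron nucleotides randomised, the intron placed in the knt kanamycin-resistance gene on pET-22b(+). DiMSum fitness is the error-weighted combination of replicate fold changes, kanamycin against none, normalised to wild type.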

| Sequence | self-splicing fitness (ln) (30 °C) | self-splicing fitness (ln) (37 °C) |
| --- | --- | --- |
| CCGGAGCAAUAUUACGGAGA | -3.99 ± 0.39 | -2.24 ± 0.25 |
| CCGGAGCAAUAUUACGGCCG | -2.44 ± 0.26 | -0.644 ± 0.21 |
| CCGGAGCAAUAUUACGGCUU | -0.296 ± 0.29 | -1.49 ± 0.33 |
| CCGGAGCAAUAUUACGGGCC | – | -2.03 ± 0.33 |
| CCGGAGCAAUAUUACGGGUA | -3.53 ± 0.4 | – |
| CCGGAGCAAUAUUACGGUAG | -2.71 ± 0.14 | -2.75 ± 0.21 |
| CCGGAGCAAUAUUACGUCGA | -3.12 ± 0.2 | -1.89 ± 0.19 |
| CCGGAGCAAUAUUACGUGCC | -2.1 ± 0.38 | -2.94 ± 0.35 |
| CCGGAGCAAUAUUACGUGCG | -1.42 ± 0.077 | -0.676 ± 0.091 |
| CCGUAGCAAUAUUACGAAUG | -0.463 ± 0.099 | 0.0216 ± 0.11 |
| CCGUAGCAAUAUUACGAGAA | -2.42 ± 0.42 | -1.03 ± 0.44 |
| CCGUAGCAAUAUUACGCAGU | -2.54 ± 0.18 | -2.6 ± 0.27 |
| CCGUAGCAAUAUUACGCAUU | -3.54 ± 0.31 | -2.9 ± 0.47 |
| CCGUAGCAAUAUUACGGAUC | -3.86 ± 0.2 | -2.03 ± 0.19 |
| CCGUAGCAAUAUUACGGCGA | -2.54 ± 0.21 | -2.62 ± 0.25 |
| CCGUAGCAAUAUUACGGCUA | -3.49 ± 0.34 | -3.04 ± 0.35 |
| CCGUAGCAAUAUUACGGUAG | -3.48 ± 0.2 | -2.97 ± 0.24 |
| CCGUAGCAAUAUUACGUACA | -2.04 ± 0.14 | -1.8 ± 0.19 |
| CCGUAGCAAUAUUACGUACU | – | -2.03 ± 0.32 |
| CCGUAGCAAUAUUACGUCAC | -1.02 ± 0.27 | – |
| CCUAAGCAAUAUUACGAUAA | -2.87 ± 0.2 | -3.37 ± 0.28 |
| CCUAAGCAAUAUUACGAUAC | -3.63 ± 0.4 | -2.3 ± 0.27 |
| CCUAAGCAAUAUUACGAUGU | -2.84 ± 0.12 | -2.03 ± 0.15 |
| CCUAAGCAAUAUUACGAUUG | -3.51 ± 0.19 | -1.68 ± 0.13 |
| CCUAAGCAAUAUUACGCACU | -2.71 ± 0.23 | -2.96 ± 0.23 |
| CCUAAGCAAUAUUACGCCUC | -2.59 ± 0.36 | – |

| Sequence | self-splicing fitness (ln) (30 °C) | self-splicing fitness (ln) (37 °C) |
| --- | --- | --- |
| CCUAAGCAAUAUUACGCGCC | -2.47 ± 0.26 | -1.63 ± 0.33 |
| CCUAAGCAAUAUUACGCGGA | -2.38 ± 0.19 | -3.62 ± 0.46 |
| CCUAAGCAAUAUUACGCUAG | -3.75 ± 0.47 | -1.64 ± 0.3 |
| CCUAAGCAAUAUUACGCUUG | -4.18 ± 0.36 | -2.98 ± 0.26 |
| CCUAAGCAAUAUUACGGAAC | -3.35 ± 0.3 | -1.68 ± 0.24 |
| CCUAAGCAAUAUUACGGACG | -1.15 ± 0.059 | -0.303 ± 0.08 |
| CCUAAGCAAUAUUACGGGGU | -3.28 ± 0.17 | -2.82 ± 0.17 |
| CCUAAGCAAUAUUACGGUAA | -2.48 ± 0.24 | -2.73 ± 0.25 |
| CCUAAGCAAUAUUACGGUGC | -2.79 ± 0.28 | -2.19 ± 0.32 |
| CCUAAGCAAUAUUACGGUGU | -4.62 ± 0.23 | -1.89 ± 0.16 |
| CCUAAGCAAUAUUACGUAGG | -3.82 ± 0.15 | -2.94 ± 0.22 |
| CCUAAGCAAUAUUACGUCAC | – | -1.54 ± 0.49 |
| CCUAAGCAAUAUUACGUGAC | -4.32 ± 0.3 | – |
| CCUAAGCAAUAUUACGUGCC | -2.84 ± 0.3 | – |
| CCUCAGCAAUAUUACGACCG | -0.986 ± 0.093 | -0.493 ± 0.095 |
| CCUCAGCAAUAUUACGAGGU | -3.38 ± 0.21 | -2.62 ± 0.19 |
| CCUCAGCAAUAUUACGCAUU | -3.81 ± 0.19 | -2.3 ± 0.22 |
| CCUCAGCAAUAUUACGCCGC | -3.72 ± 0.37 | – |
| CCUCAGCAAUAUUACGCGAA | -3.88 ± 0.34 | -3.79 ± 0.34 |
| CCUCAGCAAUAUUACGCGAC | -3.47 ± 0.28 | -2.08 ± 0.22 |
| CCUCAGCAAUAUUACGCUAA | -2.79 ± 0.14 | -3.05 ± 0.2 |
| CCUCAGCAAUAUUACGCUGC | -3.53 ± 0.21 | -1.69 ± 0.24 |
| CCUCAGCAAUAUUACGGAUA | -1.87 ± 0.15 | -2.41 ± 0.24 |
| CCUCAGCAAUAUUACGGUCA | -3.48 ± 0.26 | -2.04 ± 0.15 |
| CCUCAGCAAUAUUACGGUGU | -3.9 ± 0.27 | -1.76 ± 0.16 |
